8 molecules from US20250042994A1 (HAINAN SIMCERE ZAIMING PHARMACEUTICAL, published 2025) can be followed below.

Assay [1] concerns the target T1, Human CD19-his protein (human, UniProt P15391 20-291).
T1 construct: bought protein; also called human CD19 protein; recombinant human CD19-His; not shown: His tag
T1 sequence (looked up): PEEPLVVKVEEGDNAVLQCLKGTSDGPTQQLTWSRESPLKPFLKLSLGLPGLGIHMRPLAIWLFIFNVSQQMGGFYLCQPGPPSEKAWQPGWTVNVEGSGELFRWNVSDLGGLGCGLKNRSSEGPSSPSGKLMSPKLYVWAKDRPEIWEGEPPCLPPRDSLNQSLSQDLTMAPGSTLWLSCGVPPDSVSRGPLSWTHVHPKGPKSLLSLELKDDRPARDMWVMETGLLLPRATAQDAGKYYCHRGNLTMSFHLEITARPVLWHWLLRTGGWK
Description: ELISA, antibody at 0.001 nM. A general note: ELISA stands for enzyme-linked immunosorbent assay.

Assay [2] deals with T1, Human CD19-his protein. Nature of the assay: ELISA, antibody at 0.01 nM.
Assay [3] has as its target T1, Human CD19-his protein. Description: ELISA, antibody at 1.00 nM.
In assay [4] the target is T1, Human CD19-his protein. Description: ELISA, antibody at 0.0001 nM.
Assay [5] addresses T1, Human CD19-his protein. Description: ELISA, antibody at 0.10 nM.
Assay [6] concerns the target T2, human CD19 exon1-3-his protein (human, UniProt P15391 20-186, limits assumed).
T2 construct: made in HEK293E cells; also called membrane-distal end; not shown: His tag
T2 sequence (looked up): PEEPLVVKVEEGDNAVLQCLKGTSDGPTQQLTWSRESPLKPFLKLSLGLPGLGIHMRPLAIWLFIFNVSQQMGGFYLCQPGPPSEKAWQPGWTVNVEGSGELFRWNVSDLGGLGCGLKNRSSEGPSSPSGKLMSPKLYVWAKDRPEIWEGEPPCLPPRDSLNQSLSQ
Description: ELISA, coated at 2 ug/mL.

Assay [7] concerns the target T1, Human CD19-his protein. Nature of the assay: ELISA, antibody at 10 nM.
A further assay concerns the target T3, murine CD19 protein (murine, UniProt P25918 17-287, limits assumed).
T3 construct: bought protein; also called commercial murine CD19
T3 sequence (looked up): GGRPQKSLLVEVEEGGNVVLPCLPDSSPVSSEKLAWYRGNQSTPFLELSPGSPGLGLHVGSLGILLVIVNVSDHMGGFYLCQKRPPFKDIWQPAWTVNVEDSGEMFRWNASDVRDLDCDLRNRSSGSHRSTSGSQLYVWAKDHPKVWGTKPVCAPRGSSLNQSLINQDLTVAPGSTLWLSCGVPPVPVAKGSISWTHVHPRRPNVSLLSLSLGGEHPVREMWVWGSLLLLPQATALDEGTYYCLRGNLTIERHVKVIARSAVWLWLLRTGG
Description: ELISA, coated murine CD19. The method in brief: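 Plates coated overnight at 4° C with recombinant murine or monkey CD19 and blocked with 2% BSA. Chimeric antibodies, serially diluted from 100 nM, bound for 2 h at 37° C. TMB development for 10 min with OD450 read-out.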

Assay [8] has as its target T1, Human CD19-his protein. Nature of the assay: ELISA on coated human CD19-His. On the procedure: Human CD19-his protein (purchased from ACROBiosystems, catalog number: CD9-H52H2) was diluted with PBS to a final concentration of 4 μg/mL, and then added to a 96-well ELISA plate at 100 μl/well. The plate was sealed with a plastic film and incubated overnight at 4° C., the plate was washed 2 times with PBS the next day, and then a blocking solution [PBS+2% (w/w) BSA] was added for blocking at room temperature for 2 h. The blocking solution was poured off, and 100 nM gradiently diluted CD19 chimeric antibody or control antibody was added at 50 μl/well. After incubation at 37° C. for 2 h, the plate was washed 3 times with PBS. […] TMB substrate was added at 50 μl/well, and incubated at room temperature for 10 min, and then a stop solution (1.0 N HCl) was added at 50 μl/well. The OD450 nm values were read by an ELISA microplate reader (Multimode Plate Reader, EnSight, purchased from Perkin Elmer).

The target of assay [9] is T1, Human CD19-his protein. Nature of the assay: ELISA, antibody at 100 nM.

B1: F4.191.1 (antibody, human IgG1, V domains shown)
VH: QVQLQQPGAELVRPGASVKLSCKASGYTFTSYWINWVKQRPGQGLEWIGNIHPSDSYTNYNQKFKDKATLTVDKSSSTAYMQFSSPTSEDSAVYYCTREDYYYGSNYDAMDYWGQGTSVTVSS
VL: DIVMTQSHKFMSTSVGDRVNITCKASQDVGSSVAWYQQKPGQSPKLLIYWASTRHAGVPDRFTGSGSGADFTLTISNVQSEDLADYFCQQYSTYPLTFGAGTKLELK
notes: human-murine chimeric antibody, human IgG1
On to B1, for which the OD450 in the assay with Human CD19-his protein [1] turned out to be 0.06; in the assay with Human CD19-his protein [2] it was 0.13; with Human CD19-his protein [3], 1.42; with Human CD19-his protein [4] it was 0.05; with Human CD19-his protein [5] it was 0.57; with Human CD19-his protein [7] it was 1.43. In the assay with Human CD19-his protein [9], this molecule came in with an OD450 of 1.69. Moreover, the binding result (in [6]; with murine CD19 protein) was “no binding” in each case. Moreover, the EC50 (read off the curve) – broadly, the concentration giving half of the maximal effect – in the assay with Human CD19-his protein [8] is roughly 0.2 nM.

B2: F5.10.6 (antibody, human IgG1, V domains shown)
VH: DVQLQESGPGLVKPSQSLSLTCSVTDYSITSGYYWTWIRQFPGNKLEWMGYISYDGSTNYNPSLKNRFSITRDTSKNQFFLKLNSVIIEDTATYYCARDRMSTTWYFDVWGTGTTVTVSS
VL: DIVLTQSPASLAVSLGQRATISCRASESVDNYGISFMHWYQQKPGQPPKLLIYRASKTESGIPARFSGSGSRTDFTLTINPVETDDVATYYCQQSNKYPRTFGGGTKVEIK
notes: as for B1
Turning to B2, the OD450 came to 0.07 with Human CD19-his protein [1]; 0.15 with Human CD19-his protein [2]; 1.48 with Human CD19-his protein [3]; 0.05 with Human CD19-his protein [4]; 0.68 with Human CD19-his protein [5]; 1.76 with Human CD19-his protein [7]. In the assay with Human CD19-his protein [9], this molecule displayed an OD450 of 1.52. In addition, the binding result (in [6]; in the assay with murine CD19 protein) was “no binding” throughout. Moreover, in the assay with Human CD19-his protein [8], the “EC50 (read off the curve)” value is roughly 0.2 nM.

B3: F5.8.6 (antibody, human IgG1, V domains shown)
VH: QVQLHQPGAELVMPGASVTLSCKASGYTFTSYWMHWVKQRPGQGLEWIGEIDPSDSYTTYDQKFKGKATLTVDKFSSTAYMQFSSLTSEDSAVYYCARLTGNHLDYWGQGTTLTVSS
VL: DIVMTQSHKFMSSSVGDRVSITCKASQDVSPAVAWYQQKPGQSPKLLIYSTSYRNTGVPDRFTGSGSGTDFTFTISSVQAEDLAVYYCQQHYSIPLTFGAGTKLELK
notes: as for B1
B3: the OD450 was 0.06 with Human CD19-his protein [1]; 0.08 with Human CD19-his protein [2]; 0.69 with Human CD19-his protein [3]; 0.05 with Human CD19-his protein [4]; 0.22 in the assay with Human CD19-his protein [5]; 0.93 in the assay with Human CD19-his protein [7]. This molecule yielded an OD450 with Human CD19-his protein [9] of 0.96. The binding result (in assay [6]; with murine CD19 protein) was “no binding” each time. In addition, the “EC50 (read off the curve)” value with Human CD19-his protein [8] was roughly 0.4 nM.

B4: F5.7.1 (antibody, human IgG1, V domains shown)
VH: QVTLKESGPGILQPSQTLSLTCSFSGFSLTTFGMGVGWIRQPSGKGLEWLTHIWWDDDKYYNPALKSRLTISKDTSKNQVFLRIANVDTADTATYYCARVITTGVPYFDYWGQGTTLTVSS
VL: ENVLTQSPAIMSASPGEKVTMTCRASSSVSSSYLYWYQQKSGASPKLWISSTSNLASGVPARFSGSGSGTSYSLTINSVEAEDAATYYCQQYSGYPWTFGGGTKLEIK
notes: as for B1
For the molecule B4, the OD450 with Human CD19-his protein [1] came out at 0.08; with Human CD19-his protein [2] it was 0.25; in the assay with Human CD19-his protein [3], 1.62; with Human CD19-his protein [4], 0.06; in the assay with Human CD19-his protein [5], 1.09; with Human CD19-his protein [7], 1.78. In the assay with Human CD19-his protein [9], this molecule yielded an OD450 of 1.91. Moreover, the binding result (in assay [6]; with murine CD19 protein) was “no binding” each time. In the assay with Human CD19-his protein [8], the “EC50 (read off the curve)” value is roughly 0.07 nM.

B5: F4.15.9 (antibody, human IgG1, V domains shown)
VH: QVQLQQSGPELVKPGASVKISCKASGYAFSSSWMNWLKQRPGQGLEWIGRIYPGDGDTNYNGKFKGKATLTADESSSTAYMQLSSLTSVDSAVYFCARGITTIITIAWFASWGQGTLVTVSA
VL: QIVLSQSPTILSASPGEKVTMTCRASSSVSYMHWYQQKPGSSPKPWIYATSNLASGVPPRFSGSGSGTSYSLTISRVGAEDAATYYCQQWSSDPWTFGGGTKLEIK
notes: as for B1
In the case of B5, the OD450 with Human CD19-his protein [1] is 0.08; in the assay with Human CD19-his protein [2], 0.24; in the assay with Human CD19-his protein [3], 1.12; in the assay with Human CD19-his protein [4], 0.06; with Human CD19-his protein [5] it was 1.06; with Human CD19-his protein [7] it was 1.27. In addition, the OD450 in the assay with Human CD19-his protein [9] was found to be 1.35. Besides, the binding result (in assay [6]; with murine CD19 protein) was “no binding” each time. Also, in the assay with Human CD19-his protein [8], the half-maximal effective concentration (EC50 (read off the curve)) was roughly 0.03 nM.

B6: F5.3.6 (antibody, human IgG1, V domains shown)
VH: DVQLQESGPGLVKPSQSQSLTCSVTGYSITSGYYWNWIRQFPGNKLEWMGYISYDGSNNYNPSLKNRISITRDTSKNQFFLKLNSVTTEDTVTYYCARAPLTGDRYWYFDVWGTGTTVTVSS
VL: DIVLTQSPASLAVSLGQRATISCRASQSVSTSSYSYMHWYQQKPGQTPKLLIKYASNLKSGVPARFSGSGSGTDFTLNIHPVEEEDTATYYCQHSWEIPPTFGGGTKLEIK
notes: as for B1
In the case of B6, the OD450 with Human CD19-his protein [1] stood at 0.06; with Human CD19-his protein [2] it was 0.09; with Human CD19-his protein [3], 1.11; in the assay with Human CD19-his protein [4] it was 0.05; with Human CD19-his protein [5] it was 0.33; in the assay with Human CD19-his protein [7], 1.56. This molecule yielded an OD450 in the assay with Human CD19-his protein [9] of 1.49. In addition, the binding result (in assay [6]; with murine CD19 protein) was “no binding” throughout. For the same molecule, the concentration giving a half-maximal response (EC50 (read off the curve)) in the assay with Human CD19-his protein [8] was roughly 0.4 nM.

B7: F5.2.9 (antibody, human IgG1, V domains shown)
VH: QVTLKESGPGILQPSQTLSLTCSFSGFSLSTFGLGVGWVRQPSGKGLEWLAHIWWDDDKYYNPALKSRVTVSKETSKNQVFFKIANVDTADSATYYCARLSRGLRRDVVYAMDHWGQGTSVTVSS
VL: DIQMTQTTSSLSASLGDRVTISCRASQDISNYLNWYQQKPDGSVKLLISYVSRLQSGVPSRFRGSGSGTDYSLTISNLDQEDIATYFCQQGIAFPYTFGGGTKLDIK
notes: as for B1
In the case of B7, the OD450 with Human CD19-his protein [1] stood at 0.11; with Human CD19-his protein [2], 0.29; with Human CD19-his protein [3] it was 1.55; with Human CD19-his protein [4] it was 0.08; in the assay with Human CD19-his protein [5] it was 1.05; with Human CD19-his protein [7], 1.76. Also, the OD450 with Human CD19-his protein [9] came out at 1.56. Also, the binding result (in assay [6]; with murine CD19 protein) was “no binding” each time. Moreover, in the assay with Human CD19-his protein [8], the concentration for a half-maximal effect (EC50 (read off the curve)) is roughly 0.06 nM.

B8: F4.180.1 (antibody, human IgG1, V domains shown)
VH: EVQLQQSAPELVKPGASVKMSCKTSGYTFTENIIHWVKQTHGKSLEWIGGINPDNGGTSYHQKFKGRTTLTIDKSSSTAYMELRSLTSDDSAVFFCARQAPLYWYFDIWGAGTTVTVSS
VL: DIVLTQSPASLAVSLGQRATISCRASESVDSYGNSLMHWFQQKPGQPPRLLIYRASNLESGIPARFSGSGSRTDFTLTITPVEADDVATYYCQQSNEDPWTFGGGTKLEIK
notes: as for B1
For the molecule B8, the OD450 with Human CD19-his protein [1] was determined as 0.06; with Human CD19-his protein [2], 0.12; with Human CD19-his protein [3] it was 1.63; with Human CD19-his protein [4], 0.05; with Human CD19-his protein [5], 0.76; with Human CD19-his protein [7], 1.92. In the assay with Human CD19-his protein [9], the OD450 came to 2.02. For the same molecule, the binding result (in assay [6]; with murine CD19 protein) was “no binding” in each case. Moreover, the “EC50 (read off the curve)” value with Human CD19-his protein [8] is roughly 0.2 nM.
